Values joined by “and” are separate entries in the source; they are usually repeats but may differ in a detail not shown here. Identical values can stand only once. No end group written: not given here.
Experiments:
[1] = molecular target: T1, SNORF62 (Homo sapiens, UniProt Q9HB89); assay: Intracellular Ca2+ release (FLIPR) in SNORF62-transfected COS-7 cells; assay type: cell-based; design: The SNORF62 cDNA codes for a protein of 426 amino acids; expressed in transfected cells; host or cells: COS-7 (transient, DEAE-dextran); conditions: stimulation of Ca2+ release, SNORF62-transfected COS-7 cells, n = 2-7 (Table 1A)
T1 sequence (Q9HB89 1-426): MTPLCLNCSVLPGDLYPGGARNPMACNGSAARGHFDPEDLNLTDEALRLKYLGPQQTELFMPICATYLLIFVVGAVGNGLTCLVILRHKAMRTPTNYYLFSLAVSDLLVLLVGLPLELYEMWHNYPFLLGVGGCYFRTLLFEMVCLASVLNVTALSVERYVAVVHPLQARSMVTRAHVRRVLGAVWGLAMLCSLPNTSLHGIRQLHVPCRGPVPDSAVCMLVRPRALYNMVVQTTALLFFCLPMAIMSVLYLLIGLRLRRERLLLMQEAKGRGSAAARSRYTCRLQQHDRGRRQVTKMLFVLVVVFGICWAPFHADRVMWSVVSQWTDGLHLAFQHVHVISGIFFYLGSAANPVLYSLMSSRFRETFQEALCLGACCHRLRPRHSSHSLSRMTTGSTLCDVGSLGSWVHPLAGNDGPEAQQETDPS
Method: (§1) A typical protocol for the DEAE-dextran method as applied to COS-7 and HEK293 cells is described as follows. Cells to be used for transfection are split 24 hours prior to the transfection to provide flasks which are 70–80% confluent at the time of transfection. Briefly, 8 μg of receptor DNA plus 8 μg of any additional DNA needed (e.g. Gα protein expression vector, reporter construct, antibiotic resistance marker, mock vector, etc.) are added to 9 ml of complete DMEM plus DEAE-dextran mixture (10 mg/ml in PBS). Cells plated into a T225 flask (sub-confluent) are washed once with PBS and the DNA mixture is added to each flask. The cells are allowed to incubate for 30 minutes at 37° C., 5% CO2. Following the incubation, 36 ml of complete DMEM with 80 μM chloroquine is added to each flask and allowed to incubate an additional 3 hours. The medium is then aspirated and 24 ml of complete medium containing 10% DMSO for exactly 2 minutes and then aspirated. The cells are then washed 2 times with PBS and 30 ml of complete DMEM added to each flask. The cells are then allowed to incubate over night. The next day the cells are harvested by trypsinization and reseeded into 96 well plates.
(§2) Cells expressing the receptor of interest are plated into clear, flat-bottom, black-walled 96-well plates (Costar) at a density of 80,000–150,000 cells per well and allowed to incubate for 48 hr at 5% CO2, 37° C. The growth medium is aspirated and 100 μL of loading medium containing Fluo-3 dye is added to each well. The loading medium contains: 20 mM HEPES (Sigma), 0.1% BSA (Sigma), dye/pluronic acid mixture (e.g. 1 mM Fluo-3/AM (Molecular Probes) and 10% pluronic acid (Molecular Probes) mixed immediately before use), and 2.5 mM probenecid (Sigma)(prepared fresh). The cells are allowed to incubate for about 1 hour at 5% CO2, 37° C.
(§3) The compounds of interest are diluted in wash buffer (Hank's BSS (without phenol red), 20 mM HEPES, 2.5 mM probenecid) to a 4× final concentration and aliquoted into a clear v-bottom plate (Nunc). Following the dye incubation, the cells are washed 4 times to remove excess dye using a Denley plate washer. 100 μL final volume of wash buffer is then added to each cell well. Compounds are added to the cell plates and responses are measured using the FLIPR™ instrument. The data are then collected and analyzed using the FLIPR™ software and Graphpad Prism.
(§4) COS-7 cells were transiently transfected with SNORF62, SNORF72 or vector DNA (mock) as described in Materials and Methods.

[2] = molecular target: T1, SNORF62; assay: Displacement of [125I]rat NMU-23 binding in SNORF62-transfected COS-7 membranes; design: The SNORF62 cDNA codes for a protein of 426 amino acids; expressed in transfected cells; host or cells: COS-7 (transient, DEAE-dextran); conditions: binding affinity, SNORF62-transfected COS-7 cells (Table 1A); read-out: SNORF62 Avg Ki
Method: The specifics of preparing such cell membranes may in some cases be determined by the nature of the ensuing assay but typically involve harvesting whole cells and disrupting the cell pellet by sonication in ice cold buffer (e.g. 20 mM Tris HCl, mM EDTA, pH 7.4 at 4° C.). The resulting crude cell lysate is cleared of cell debris by low speed centrifugation at 200×g for 5 min at 4° C. The cleared supernatant is then centrifuged at 40,000×g for 20 min at 4° C., and the resulting membrane pellet is washed by suspending in ice cold buffer and repeating the high speed centrifugation step. The final washed membrane pellet is resuspended in assay buffer. Protein concentrations are determined by the method of Bradford (1976) using bovine serum albumin as a standard. The membranes may be used immediately or frozen for later use.
(§5) Radioligand binding assays were performed by diluting membranes prepared from cells expressing the receptor in 50 mM Tris buffer (pH=7.4 at 0° C.) containing 0.1% bovine serum albumin (Sigma), aprotinin (0.005 mg/ml, Boehringer Mannheim) and bestatin (0.1 mM, Sigma) as protease inhibitors. The final protein concentration in the assay was 12–40 μg/ml. […] The bound ligand was separated from free by filtration through GF/B filters presoaked in 0.5% polyethyleneimine (PEI), using a Tomtec (Wallac) vacuum filtration device. After addition of Ready Safe (Beckman) scintillation fluid, bound radioactivity was quantitated using a Trilux (Wallac) scintillation counter (approximately 40% counting efficiency of bound counts). Data was fit to non-linear curves using GraphPad Prism.
In this manner, agonist or antagonist compounds that bind to the receptor may be identified as they inhibit the binding of the labeled ligand to the membrane protein of cells expressing the said receptor. Non-specific binding was defined as the amount of radioactivity remaining after incubation of membrane protein in the presence of 100 nM of the unlabeled peptide corresponding to the radioligand used. In equilibrium saturation binding assays membrane preparations or intact cells transfected with the receptor are incubated in the presence of increasing concentrations of the labeled compound to determine the binding affinity of the labeled ligand.

[3] = molecular target: T1, SNORF62; assay: Calcium-activated Cl- currents in Xenopus oocytes injected with SNORF62 mRNA; assay type: cell-based; design: from linearized plasmids or PCR products containing the complete coding region of the gene; expressed in transfected cells; host or cells: Xenopus laevis oocytes injected with in vitro transcribed SNORF62 mRNA; conditions: 1 μM peptide, n=3
Method: Heterologous expression of GPCRs in Xenopus oocytes has been widely used to determine the identity of signaling pathways activated by agonist stimulation (Gundersen et al., 1983; Takahashi et al., 1987). Activation of the phospholipase C (PLC) pathway is assayed by applying a test compound in ND96 solution to oocytes previously injected with mRNA for the human SNORF62 and observing inward currents at a holding potential of approximately −80 mV. The appearance of currents that reverse at −25 mV and display other properties of the Ca^++-activated Cl^− channel is indicative of receptor-acitivation of PLC and release of IP3 and intracellular Ca^++.
In the present invention, oocytes were harvested from Xenopus laevis and injected with mRNA transcripts as previously described (Quick and Lester, 1994; Smith et al., 1997). SNORF62 mRNA transcript was synthesized using the T7 polymerase (“Message Machine”, Ambion) from linearized plasmids or PCR products containing the complete coding region of the gene. Oocytes were injected with 1–50 ng synthetic receptor RNA and incubated for 3–8 days at 17° C. Currents were recorded under dual electrode voltage clamp (Axon Instruments Inc.) with 3 M KCl-filled glass microelectrodes having resistances of 1–2 Mohm. Unless otherwise specified, oocytes were voltage clamped at a holding potential of −80 mV. […]

[4] = molecular target: T2, SNORF72 (Homo sapiens, UniProt Q9GZQ4, A395T); assay: Intracellular Ca2+ release (FLIPR) in SNORF72-transfected COS-7 cells; assay type: cell-based; conditions: stimulation of Ca2+ release, SNORF72-transfected COS-7 cells, n = 2-7 (Table 1A)
T2 construct: expressed in transfected cells; host or cells: COS-7 (transient, DEAE-dextran)
T2 sequence (Q9GZQ4 whole entry A395T): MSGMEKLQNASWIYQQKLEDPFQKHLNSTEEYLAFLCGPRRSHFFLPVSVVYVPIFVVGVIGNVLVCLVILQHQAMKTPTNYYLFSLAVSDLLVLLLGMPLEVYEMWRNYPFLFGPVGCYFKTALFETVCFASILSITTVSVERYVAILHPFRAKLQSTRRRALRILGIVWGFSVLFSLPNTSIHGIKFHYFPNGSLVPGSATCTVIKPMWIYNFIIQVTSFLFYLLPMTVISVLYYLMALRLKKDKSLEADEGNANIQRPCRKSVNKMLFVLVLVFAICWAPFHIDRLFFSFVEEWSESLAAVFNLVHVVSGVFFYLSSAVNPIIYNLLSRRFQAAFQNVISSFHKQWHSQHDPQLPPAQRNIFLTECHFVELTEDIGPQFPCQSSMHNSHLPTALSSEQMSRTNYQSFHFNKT
Method: as §1, §2, §3, §4

[5] = molecular target: T3, human SNORF62 receptor (human, UniProt Q9HB89 1-426); assay: displacement of [125I]rat NMU-23 (0.05-0.1 nM), membranes of SNORF62-transfected COS-7 cells, n=2
T3 construct: also called hSNORF62; NMU receptor
T3 sequence: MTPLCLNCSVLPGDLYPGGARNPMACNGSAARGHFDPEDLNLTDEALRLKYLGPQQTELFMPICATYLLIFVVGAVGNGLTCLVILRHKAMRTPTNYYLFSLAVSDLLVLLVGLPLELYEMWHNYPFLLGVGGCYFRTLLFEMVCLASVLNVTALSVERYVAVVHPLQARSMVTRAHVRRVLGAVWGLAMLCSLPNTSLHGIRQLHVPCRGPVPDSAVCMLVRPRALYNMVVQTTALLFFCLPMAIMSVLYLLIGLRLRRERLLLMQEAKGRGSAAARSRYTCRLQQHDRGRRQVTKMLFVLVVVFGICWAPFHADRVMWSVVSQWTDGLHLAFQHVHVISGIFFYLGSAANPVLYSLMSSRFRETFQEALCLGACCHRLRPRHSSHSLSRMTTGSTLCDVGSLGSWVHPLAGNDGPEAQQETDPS
Method: as §5, with “µg/ml.” for “μg/ml.”

[6] = molecular target: T3, human SNORF62 receptor; assay: displacement of [125I]rat NMU-23, membranes of SNORF62-transfected COS-7 cells
Method: as §5, with “µg/ml.” for “μg/ml.”

[7] = molecular target: T3, human SNORF62 receptor; assay: cell-based or functional assay
[8] = molecular target: T4, human SNORF72 receptor (human, UniProt Q9GZQ4 1-415); assay: displacement of [125I]rat NMU-23 (0.05-0.1 nM), membranes of SNORF72-transfected COS-7 cells, n=2
T4 construct: Full-length receptor (longest open reading frame), transiently expressed in COS-7 cells (whole cells or membranes prepared from them); also called hSNORF72; NMU receptor
T4 sequence (Q9GZQ4 other isoform, or with tags, fused parts or gaps): as the sequence (Q9GZQ4 whole entry A395T) above
Method: as §5, with “µg/ml.” for “μg/ml.”

[9] = molecular target: T3, human SNORF62 receptor; assay: cell-based or functional assay; remark: listed apart in the source
[10] = molecular target: T3, human SNORF62 receptor; assay: cell-based or functional assay; remark: listed apart in the source
[11] = molecular target: T4, human SNORF72 receptor; assay: cell-based or functional assay
[12] = molecular target: T4, human SNORF72 receptor; assay: saturation radioligand binding, membranes of SNORF72-transfected COS-7 cells, n=2
Method: as §5, with “µg/ml.” for “μg/ml.”

[13] = molecular target: T3, human SNORF62 receptor; assay: saturation radioligand binding, membranes of SNORF62-transfected COS-7 cells, n=2
Method: as §5, with “µg/ml.” for “μg/ml.”

[14] = molecular target: T4, human SNORF72 receptor; assay: displacement of [125I]rat NMU-23, membranes of SNORF72-transfected COS-7 cells
Method: as §5, with “µg/ml.” for “μg/ml.”

[15] = molecular target: T4, human SNORF72 receptor; assay: cell-based or functional assay; remark: listed apart in the source

Molecule | pKi [5] | Ki [6] | AVG EC50 (nM), stimulation of Ca++ release in SNORF62-transfected COS-7 cells (FLIPR) [7] | pKi [8] | EC50, release of IP second messengers in SNORF62-transfected COS-7 cells [9] | release of IP second messengers, fold above basal, in SNORF62-transfected COS-7 cells [9] | Avg EC50 (nM), stimulation of Ca2+ release in SNORF62-transfected COS-7 cells [10] | Avg EC50 (nM), stimulation of Ca2+ release in SNORF72-transfected COS-7 cells [11] | Kd [12] | Kd [13] | Ki [14] | EC50, Ca2+ release in SNORF72-transfected COS-7 cells [15] | EC50 [1] | Ki [2] | current amplitude [3] | EC50 [4]
CC[C@H](C)[C@H](NC(=O)[C@@H]1CCCN1C(=O)CNC(=O)[C@H](CCC(N)=O)NC(=O)[C@H](Cc1ccccc1)NC(=O)[C@H](CCC(=O)O)NC(=O)[C@H](CCC(=O)O)NC(=O)[C@H](CC(=O)O)NC(=O)[C@@H](NC(=O)[C@H](CCCCN)NC(=O)[C@@H](N)Cc1ccccc1)C(C)C)C(=O)N[C@H](C(=O)N[C@@H](CO)C(=O)N[C@@H](CCC(N)=O)C(=O)N[C@@H](CC(N)=O)C(=O)N[C@@H](CCCNC(=N)N)C(=O)N[C@@H](CCCNC(=N)N)C(=O)N[C@@H](Cc1ccc(O)cc1)C(=O)N[C@@H](Cc1ccccc1)C(=O)N[C@@H](CC(C)C)C(=O)N[C@@H](Cc1ccccc1)C(=O)N[C@@H](CCCNC(=N)N)C(=O)N1CCC[C@H]1C(=O)N[C@@H](CCCNC(=N)N)C(=O)N[C@@H](CC(N)=O)C(N)=O)C(C)C [porcine NMU-25, FKVDEEFQGPIVSQNRRYFLFRPRN—NH2] |  |  |  |  |  |  |  |  |  |  |  |  | 5.2 ± 0.8 nM | 1.1 ± 0.2 nM | 2150±330 nA | 3 ± 0.7 nM
YKVNEYQGPVAPSGGFFLFRPRN-NH2 (also: 125I-labelled, residue not given here, Radioligand from NEN, specific activity 2200 Ci/mmole; also called radioiodinated rat NMU-23) [[125I]rat NMU-23] |  |  |  |  |  |  |  |  | 0.81 nM and 0.96 nM | 0.61 nM and 0.72 nM |  |  |  |  |  | 

Second part, led by results:

pKi [5] | Ki [6] | AVG EC50 (nM), stimulation of Ca++ release in SNORF62-transfected COS-7 cells (FLIPR) [7] | pKi [8] | EC50, release of IP second messengers in SNORF62-transfected COS-7 cells [9] | release of IP second messengers, fold above basal, in SNORF62-transfected COS-7 cells [9] | Avg EC50 (nM), stimulation of Ca2+ release in SNORF62-transfected COS-7 cells [10] | Avg EC50 (nM), stimulation of Ca2+ release in SNORF72-transfected COS-7 cells [11] | Kd [12] | Kd [13] | Ki [14] | EC50, Ca2+ release in SNORF72-transfected COS-7 cells [15] | Molecule | EC50 [1] | Ki [2] | current amplitude [3] | EC50 [4]
8.7 | 2 nM | 4 nM | 8.5 | 0.25 nM | ~2 fold | 4 nM | 2.4 nM |  |  |  |  | FRVDEEFQSPFASQSRGYFLFRPRN-NH2 (also called human neuromedin U-25) [human NMU-25] |  |  |  | 
9.4 | 0.5 nM | 2.1 nM | 9 | 0.23 nM |  | 2.1 nM | 5 nM |  |  | 0.5 nM | 1.7 nM and 5.1 nM | YKVNEYQGPVAPSGGFFLFRPRN-NH2 (also called rat neuromedin U-23) [rat NMU-23] |  |  |  | 
